Assay [1] deals with human CD3 (human) (UniProt P07766). In words: Biacore; glofitamab formulations F1, F3 and F4 after storage at 40°C, relative to initial. For orientation: SPR reads the build-up and loss of mass on a sensor chip optically.
Assay [2] shares this target. In words: Biacore; glofitamab formulations F2 and F5 after storage at 40°C, relative to initial.

A value given as a limit tells only on which side of the number the result lay.

Sequence of UniProt P07766 (P07766 23-126): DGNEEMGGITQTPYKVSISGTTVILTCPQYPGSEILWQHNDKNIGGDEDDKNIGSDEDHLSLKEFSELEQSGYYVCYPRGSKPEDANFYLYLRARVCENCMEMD

Regarding glofitamab (bispecific antibody), the results for the loss of CD3 binding in assay [1] and in assay [2] were 10 to 20% and < 50%, respectively.

The record behind these values is patent EP4810519A2.
